Results on 19 molecules are retold here after patent US20250144213A1 (UTC THERAPEUTICS SHANGHAI, published 2025).

The test deals with T1, CD123-Fc recombinant protein (human, UniProt P26951 19-305).
T1 construct: Soluble staining reagent; also called CD123-Fc protein; not shown: Fc part
T1 sequence (looked up): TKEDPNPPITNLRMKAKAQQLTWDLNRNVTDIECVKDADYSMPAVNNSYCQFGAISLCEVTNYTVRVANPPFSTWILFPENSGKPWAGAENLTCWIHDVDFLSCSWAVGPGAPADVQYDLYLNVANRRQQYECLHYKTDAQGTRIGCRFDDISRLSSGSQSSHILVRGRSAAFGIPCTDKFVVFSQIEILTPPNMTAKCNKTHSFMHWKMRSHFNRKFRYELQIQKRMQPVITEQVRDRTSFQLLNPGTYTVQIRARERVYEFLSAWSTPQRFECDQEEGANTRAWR
Description: FACS staining of CAR-T cells with CD123-Fc recombinant protein (FIG. 28).

B1: anti-CD123 scFv-C4 (scFv)
scFv: QSALTQPPSASGTPGQRVTISCSGSSSNIGSNYVNWYQQLPGTAPKLLIYRNNQRPSGVPDRFSGSKSGTSASLAISGLRSEDEADYYCAAWDDSLSGHGVFGTGTELTVLGGGGSGGGGSGGGGSQVQLVQSGPEVKKPGASVKVSCKASGYDFIRYYMNWVRQAPGQGPEWMGAIDPSDGDTTYGQKFQGRVTLTRDTFTSTVYMELSSLRSEDTAVYYCARDWELTNSYGLDVWGQGTTVTVSS
notes: also called C4 scFv
Regarding B1, the binding result is reported as “binds”.

B2: anti-CD123 scFv-C10 (scFv)
scFv: SYELTQPPSVSVAPGKTARITCGGNNIGSKSVHWYQQKPGQAPVLVVYDDSDRPSGIPERFSGSNSGNTATLTISRVEAGDEADYYCQVWDSSSDHWVFGGGTKLTVLGGGGSGGGGSGGGGSQVQLVQSGAEVKKPGSSVKVSCKASGGTFSSYAISWVRQAPGQGLEWMGGIIPIFGTANYAQKFQGRVTITADESTSTAYMELSSLRSEDTAVYYCAREKWGYYGDYYYGMDVWGQGTTVTVSS
notes: also called C10 scFv
Consider B2, for which the binding result was “binds”.

B3: anti-CD123 scFv-C11 (scFv)
scFv: QSVVTQPPSASGTPGQRVTISCSGSSSNIGSNYVYWYQQLPGTAPKLLIYRNNQRPSGVPDRFSGSKSGTSASLAISGLRSEDEADYYCAAWDDSLSGYVFGTGTKLTVLGGGGSGGGGSGGGGSEVQLVESGGGLVQPGRSLRLSCTASGFTFGDYAMSWVRQAPGKGLEWVGFIRSKAYGGTTEYAASVKGRFTISRDDSKSIAYLQMNSLKTEDTAVYYCTRDIGYYGSGSYSPFDYWGQGTLVTVSS
notes: also called C11 scFv; C11 CAR
Turning to B3, the binding result is recorded as “binds”.

B4: anti-CD123 scFv-C29 (scFv)
scFv: QPVLTQPPSASGTPGQRVTISCSGSSSNIGSNYVYWYQQLPGTAPKLLIYRNNQRPSGVPDRFSGSKSGTSASLAISGLRSEDEADYYCAAWDDSLSGYVFGTGTKVTVLGGGGSGGGGSGGGGSEVHLVESGGGLVQPGRSLRLSCTASGFTFGDYAMSWVRQAPGKGLEWVGFIRSKAYGGTTEYAASVKGRFTISRDDSKSIAYLQMNSLKTEDTAVYYCTRDIGYYGSGSYSPFDYWGQGTLVTVSS
notes: also called C29 scFv
For the molecule B4, the binding result was “binds”.

B5: anti-CD123 scFv-C15 (scFv)
scFv: DIQLTQSPSTLSASVGDRVTISCRASQSISSWLAWYQHKPGKAPKLLIYKTSALEDGVPSRFSGSGSGTEFTLTISSLQPDDFATYFCLHYGSYTFGQGTKVDIKGGGGSGGGGSGGGGSEVQLVESGGGLVNPGGSLRLSCEASGFTFSDYYISWIRQAPGKGLEWISYISGSSTYTDFADSVKGRFTISRDNAKNTVFLQMNSLRAEDTAVYYCARDRRGRFDPWGQGTLVTVSS
notes: also called C15 scFv
As for B5, the binding result is on record as “binds”.

B6: anti-CD123 scFv-C21 (scFv)
scFv: QSVLTQPPSASGTPGQRVTISCSGSSSNVGGNPVYWYRQVPTAAPKLLVYGHNQRPPRDPDRFSGSKSGTSASLAISGLRSEDEADYYCAAWDDSLSGWVFGGGTELTVLGGGGSGGGGSGGGGSEVQLVESGGGLVQPGRSLRLSCAASGFTFDDYAMHWVRQAPGKGLEWVSGISWNSGSIGYADSVKGRFTISRDNAKNSLYLQMNSLRAEDTALYYCAKGRYVDIVATINDAFDIWGQGTMVTVSS
notes: also called C21 scFv
Consider B6, for which the binding result is listed as “binds”.

B7: anti-CD123 scFv-C14 (scFv)
scFv: DIRMTQSPSSLSASVGDRVTITCQASQDITNYLNWYHQKPGKAPKLLIYDASNLETGVPSRFSGGGSGTDFTFTISSLQSEDIGTYYCQQYDDLPLTFGGGTKVEIKGGGGSGGGGSGGGGSQVQLQESGPGLVKPSETLSLTCTVSGGSISSSSHYWGWIRQPPGKGLEWIGSIYYSGSTYYNPSLKSRVTISVDTSKNQFSLKLSSVTAADTAVYYCARRVWVWPTYGMDVWGQGTTVTVSS
notes: also called C14 scFv
With B7, the binding result is listed as “binds”.

B8: anti-CD123 scFv-C6 (scFv)
scFv: SYELTQPPSVSVSPGQTARIPCSGADLGDQYVSWYQHQPGQSPLLVIYEDDKRPSGIPERFSGSNSGNTATLTISGTQAMDEADYYCQAWDGNAAIFGGGTKLTVLGGGGSGGGGSGGGGSQVQLVQSGGGSVQPGGSLRLSCAASGFTFTRYSMNWVRQAPGKGLEWVSYISSSSSTIYYADSVKGRFTISRDNAKNSLYLQMNSLRDEDTAVYYCARDGYGGNSDYYGMDVWGQGTTVTVSS
notes: also called C6 scFv
B8: the binding result is on record as “binds”.

B9: anti-CD123 scFv-C5 (scFv)
scFv: NFMLTQPHSVSESPGKTVTLSCTRSSGSIAGSYVQWYQQRPGSSPTTVIFQDNQRPSGVPDRFSGSIDKSSNSASLTISGLKTEDEADYYCQSYDSNNQVFGGGTKLTVLGGGGSGGGGSGGGGSEVHLVESGGGVVRPGGSLRLSCAASGFTFGDYGMSWVRQAPGKGLEWVSGINWNGGRTGYADSVKGRFTISRDNAKNSLYLQMNSLRAEDTALYYCARARGSGSYFGYMDVWGKGTTVTVSS
notes: also called C5 scFv; C5 CAR
In the case of B9, the binding result is given as “binds”.

B10: anti-CD123 scFv-C3 (scFv)
scFv: AIQMTQSPSSLSASVGDRVTITCRASQGIGTYLAWFQQKPGKAPKSLIYAASNLQSGVPSKFSGSGSGTDFTLTISNLQPEDFATYYCQQYKGYPLTFGGGTKLEIKGGGGSGGGGSGGGGSQVQLVQSGAEVKKPGSSVKVSCKASGGTFSSYAISWVRQAPGQGLEWMGGIIPIFGTANYAQKFQGRVTITADESTSTAYMELSSLRSEDTAVYYCARDSGWFGPRYYFDYWGQGTLVTVSS
notes: also called C3 scFv
Consider B10, for which the binding result is listed as “binds”.

B11: anti-CD123 scFv-C2 (scFv)
scFv: QSVVTQPPSVSAAPGQKVTISCSGSSSNIGNNYVSWYQQFPGTAPKLLIYDNNKRPSGIPDRFSGSKSGTSGTLGITGLQTGDEADYYCVTWDTSLSAGVFGGGTKLTVLGGGGSGGGGSGGGGSQITLKESGGGLVKPGGSLRLSCAASGFTFSNAWMSWVRQAPGKGLEWVGRIKSKTDGGTTDYAAPVKGRFTISRDDSKNTLYLQMNSLKTEDTAVYYCTTDPHGYYYGMDVWGQGTTVTVSS
notes: also called C2 scFv
For B11, the binding result is reported as “binds”.

B12: anti-CD123 scFv-C9 (scFv)
scFv: QSVLTQPPSASGTPGQRVTISCSGSNSNIENNYVYWYQHLPGTAPKRLIYQNNQRPSGVPDRFSGSKSGTSASLAISGLRSEDEADYYCSAWDDSLSAWVFGGGTELTVLGGGGSGGGGSGGGGSEVHLVESGGGLVQPGRSLRLSCTASGFTFGDYAMNWVRQAPGKGLEWVGFIRSKASGGTTDYAASVKGRFTISRDDSKSIAYLQMNSLKTEDTAVYYCTRALRGYSYGLFDYWGQGTLVTVSS
notes: also called C9 scFv
For the molecule B12, the binding result is given as “binds”.

B13: anti-CD123 scFv-C13 (scFv)
scFv: DVVMTQTPLSLPVTLGQPASISCRSSQGLVFSDGVTYLNWFQQRPGQSPRRLIYKVSNRDSGVPDRFSGSGSGTDFTLKISRVEAEDVGIYYCMQGTHWPHTFGQGTKLEIKGGGGSGGGGSGGGGSEVQLVESGGGLVKPGGSLRLSCAASGFTFSSYSMNWVRQAPGKGLEWVAFISHDASKKFYADSVKGRFTLSRDNSKNTLYLEMNSLGAEDTALYYCGRDRNWGFSDFWGQGTLVTVSS
notes: also called C13 scFv
Regarding B13, the binding result is given as “binds”.

B14: anti-CD123 scFv-C18 (scFv)
scFv: QSALTQPASVSGSPGQSITISCTGTSSDVGGYNYVSWYQQHPGKAPKLMIYDVSNRPSGVSNRFSGSKSGNTASLTISGLQAEDEADYYCSSYTSSSTLFVFGTGTELTVLGGGGSGGGGSGGGGSQVQLQESGPGLVKPSQTLSLTCTVSGGSISSGDYYWSWIRQSPGKGLEWIGYIHSTGTTYYNPSLKSRLTISLDTSKNQFSLKLNSVTAADTAVYYCARGGVGTIFNYWGQGTLVTVSS
notes: also called C18 scFv
B14: the binding result is “binds”.

B15: anti-CD123 scFv-C24 (scFv)
scFv: DIQMTQSPSSLSASVGDRVTITCRASQSISSYLNWYQQKPGKAPKLLIHAASSLQSGVPSKFSGSGSGTDFTLTISSLQPEDFATYYCLQYKTYPYTFGPGTKVEIKGGGGSGGGGSGGGGSQVQLVQSGAEVKKPGSSVKVSCKASGGTFSSYAISWVRQAPGQGLEWMGGIIPIFGTANYAQKFQGRVTITADESTSTAYMELSSLRSEDTAVYYCARDSPSGSTNYYYYYMDVWGKGTTVTVSS
notes: also called C24 scFv
As for B15, the binding result is listed as “binds”.

B16: anti-CD123 scFv-C1 (scFv)
scFv: QSALTQPASVSGSPGQSITISCTGTSSDIGAYNYVSWYQQHPGKAPKLIIYDVSHRPSGVSNRFSGSKSGNTASLTISGLQSEDEADYYCSSDTNNNTLVFGVGTKLTVLGGGGSGGGGSGGGGSEVHLVESGGGVVQPGRSLRLSCAASGFTFSSYGMHWVRQAPGKGLEWVAVIWYDGSNKYYADSVKGRFTISRDNSKNTLYLQMNSLRAEDTAVYYCARDRDGFFLPMYYFDYWGQGTLVTVSS
notes: also called C1 scFv
B16: the binding result is listed as “binds”.

B17: anti-CD123 scFv-C16 (scFv)
scFv: QSVVTQPPSASGTPGQRVTISCSGSSSNIEGNTVSWYQQFPGAAPKLLIYSNSYRASGVPDRFSGSKSGTSASLAISELQSEDEADYYCSAWDDSLNGPVFGGGTELTVLGGGGSGGGGSGGGGSQVQLQESGGGLVQPGGSLRLSCAASGFTFSSYSMNWVRQAPGKGLEWVSYISSSSSTIYYADSVKGRFTISRDNAKNSLYLQMNSLRAEDTAVYYCARDIYGDWDYYYYGMDVWGQGTTVTVSS
notes: also called C16 scFv
B17: the binding result is listed as “binds”.

B18: anti-CD123 scFv-C23 (scFv)
scFv: DILMTQSPSSLSASVGDRVTITCQASQDISNYLNWYQQKPGKAPKLLIYDASNLETGVPSRFSGSGSGTGFSFTISSLQPEDFATYYCQQYGNLPLTFGGGTKLEIKGGGGSGGGGSGGGGSQVQLVQSGAEVKKPGASVKVSCKASGYTFTSYGISWVRQAPGQGLEWMGWISAYNGNTNYAQKLQGRVTMTTDTSTSTAYMELRSLRSDDTAVYYCARDRIAAAEVYYYYGMDVWGQGTTVTVSS
notes: also called C23 scFv
As for B18, the binding result is given as “binds”.

B19: anti-CD123 scFv-C19 (scFv)
scFv: DIRMTQSPSSLSASVGDRVTITCRASQDIRHDLGWYQQKPGKAPSLLMYATSTLQSGVPSRFSGSGSGTHFTLTISSLKPEDSATYYCLQDGDYPLTFGGGTKLEIKGGGGSGGGGSGGGGSQVQLVQSGGGVVQPGRSLRLSCAASGFTFSSYGMHWVRQAPGKGLEWVAVISYDGSNKYYADSVKGRFTISRDNSKNTLYLQMNSLRAEDTAVYYCAKDPSLIQYYYYGMDVWGQGTMVTVSS
notes: also called C19 scFv
For B19, the binding result is reported as “binds”.
